The test system of data set [1] is NC(=O)C1=CN([C@@H]2O[C@H](COP(=O)(O)OP(=O)(O)OC[C@H]3O[C@@H](n4cnc5c(N)ncnc54)[C@H](OP(=O)(O)O)[C@@H]3O)[C@@H](O)[C@H]2O)C=CC1. Briefly: tryptophan fluorescence quenching (equilibrium and stopped-flow); steady-state kinetics (Km). To be noted: Trp331 of the C-terminal tail loop contributes to binding of both NADPHs; varied: cofactor. The data set is classed as biochemical, Streptomyces xinghaiensis.

A further data set deals with T1, AKR_coelicolor (Streptomyces coelicolor, UniProt Q9F2Z5).
T1 construct: gene SCO4352
T1 sequence (Q9F2Z5 1-330): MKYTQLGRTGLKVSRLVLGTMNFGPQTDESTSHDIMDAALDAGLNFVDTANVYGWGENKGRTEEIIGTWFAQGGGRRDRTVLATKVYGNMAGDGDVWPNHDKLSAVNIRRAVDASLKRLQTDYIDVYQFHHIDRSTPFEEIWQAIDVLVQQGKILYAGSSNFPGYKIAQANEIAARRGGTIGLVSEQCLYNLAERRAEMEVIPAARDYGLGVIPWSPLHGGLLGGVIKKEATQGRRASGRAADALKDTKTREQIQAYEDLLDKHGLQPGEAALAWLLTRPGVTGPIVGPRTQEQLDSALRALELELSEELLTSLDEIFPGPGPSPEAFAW
In words: steady-state kinetics, inhibition at high NADPH concentration. The data set is classed as biochemical.

For a further data set, the target named is T2, AKRtyl (Streptomyces xinghaiensis, UniProt A0A3R7J519).
T2 construct: gene SFRA_012675; N-terminally His6-tagged AKRtyl, octamer
In words: X-ray crystal structure ([…] Å), equilibrium tryptophan fluorescence quenching and stopped-flow. The data set is classed as binding.

Data set [2] concerns the molecule itself. Briefly: crystal structure; sitting-drop vapour diffusion at 20 °C; AKRtyl at 10 mg/ml in 10 mM Tris-HCl pH 7.5, 150 mM NaCl; purified-state, apo, NADP(H), NADP+-tylosin and tylosin forms, all octameric.

Three molecules from PMC10923870, “A three-level regulatory mechanism of the aldo-keto reductase subfamily AKR12D” (Nature Communications, 2024) can be followed below.

What is called kcat is the number of substrate molecules converted per active site and unit of time at saturation. As usually defined, the kcat/Km is the turnover number divided by the Michaelis constant. As a reminder, the Kd is the concentration at which binding is half-saturated. Broadly, the stoichiometry N is the number of molecules, sites or subunits per partner or assembly.

As to “AKRtyl (Streptomyces xinghaiensis; W331A)”, in data set [1], the K0.5 stood at 11.03 µM, the kcat amounted to 0.18 ± 0.01 s⁻¹ and the kcat/Km worked out at 16300 M⁻¹ s⁻¹.
On to `NC(=O)C1=CN([C@@H]2O[C@H](COP(=O)(O)OP(=O)(O)OC[C@H]3O[C@@H](n4cnc5c(N)ncnc54)[C@H](OP(=O)(O)O)[C@@H]3O)[C@@H](O)[C@H]2O)C=CC1` [NADPH], for which the “steady-state kinetics, inhibition at high NADPH concentration” value at AKR_coelicolor is recorded as “inhibition by the cofactor NADPH at high concentrations was also observed for these two AKRs”. Also, binding at AKRtyl was characterised by a dissociation constant (Kd) of 450 nM.

B1: AKRtyl (tylosin reductase, aldo-keto reductase AKR12D1) (enzyme, S. fradiae)
chain: MEYTQLGRIGLKVSRLVLGTMNFGPTTDEAESHAIMDAALDAGINFFDTANVYGWGENKGRTEEILGSWFAQGGDRRDKVVLATKVYGNMGLDGPAWPNHDKLSALNIRRSVDASLKRLGTDHIDLYQFHHVDRDTPWDEIWQAMDVLVRQGKILYVGSSNFAGWNIAQANETAARHGRLGLVSEQCLYNLCERRAEMEVVPAAREYGLGVIAWSPLHGGLLGGAIRKEQEGGNRRAASGRAADALKDPQQREQIQRYEDLLDKHGLEPGEVALAWLLTRPGVTGPIVGPRTADQLASAVRAAELTLTDEVLTALDEIFPGPGPSPEAFAW
notes: AKRtyl, tylosin reductase of the tylosin producer S. fradiae, UniProt A0A3R7J519; protein coding gene cloned into pET28a between NdeI and XhoI; Octamer made of two homotetramers; also called WT; source: E. coli BL21 (DE3), purified (Ni-NTA, size-exclusion chromatography on Superdex 200 increase)
Turning to B1, in data set [2], the “stoichiometry N” value came to 8.
